Paper PMC11697113, “The Hsc70 system maintains the synaptic SNARE protein SNAP-25 in an assembly-competent state and delays its aggregation [image fx2.gif]” (The Journal of Biological Chemistry, 2024)
Blank lines part the entries; values can stand above or below the binder they belong to.

Target: T1, heat shock cognate 70 (Hsc70), human constitutively expressed Hsp70, wild type (human, UniProt P11142 1-646)
T1 construct: Hsc70, the human constitutively expressed Hsp70; also called WT Hsc70; His-Hsc70 (before cleavage); source: E. coli Rosetta (DE3), purified (Ni-NTA, TEV cleavage, second Ni-NTA)
T1 sequence (P11142 whole entry): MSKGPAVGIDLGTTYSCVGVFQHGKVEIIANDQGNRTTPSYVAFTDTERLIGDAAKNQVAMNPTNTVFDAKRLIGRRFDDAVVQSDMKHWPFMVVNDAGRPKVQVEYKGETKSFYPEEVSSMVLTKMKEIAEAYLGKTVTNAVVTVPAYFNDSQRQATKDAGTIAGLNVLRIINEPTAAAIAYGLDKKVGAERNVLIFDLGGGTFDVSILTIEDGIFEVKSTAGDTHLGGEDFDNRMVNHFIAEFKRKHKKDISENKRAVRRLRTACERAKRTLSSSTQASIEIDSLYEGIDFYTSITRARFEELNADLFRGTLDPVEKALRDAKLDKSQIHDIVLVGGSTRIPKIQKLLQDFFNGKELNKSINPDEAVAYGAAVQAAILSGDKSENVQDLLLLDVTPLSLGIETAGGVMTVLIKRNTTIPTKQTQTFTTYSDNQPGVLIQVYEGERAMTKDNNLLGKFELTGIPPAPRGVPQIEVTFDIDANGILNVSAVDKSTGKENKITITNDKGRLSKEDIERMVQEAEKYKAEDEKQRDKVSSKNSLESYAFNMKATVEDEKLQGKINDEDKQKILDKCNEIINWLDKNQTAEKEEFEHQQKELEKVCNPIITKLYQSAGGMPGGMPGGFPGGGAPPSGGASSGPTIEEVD
Test: NMR titration; methyl-TROSY (1H-13C HMQC) spectra of Ile δ1-13CH3-labeled Hsc70 (40 μM) without and with unlabeled peptide; 10 mM potassium phosphate pD 7.4, 5 mM DTT, D2O, 25 °C, 600 MHz
Conditions: both partners purified

binding result: binds
B1: SNCP peptide of SNAP-25 (LOOP-SNC site) (peptide)
peptide: EREQMAISGGFIRR
notes: also called SNC peptide; LOOP-SNC peptide; source: synthetic peptide

binding result: binds
B2: SNNP peptide of SNAP-25 (peptide)
peptide: RRMLQLVEESK
notes: also called SNN peptide; source: synthetic peptide
